T1: CAV1-His (wild type caveolin-1, E. coli expression) (human, UniProt Q03135 1-178)
T1 sequence: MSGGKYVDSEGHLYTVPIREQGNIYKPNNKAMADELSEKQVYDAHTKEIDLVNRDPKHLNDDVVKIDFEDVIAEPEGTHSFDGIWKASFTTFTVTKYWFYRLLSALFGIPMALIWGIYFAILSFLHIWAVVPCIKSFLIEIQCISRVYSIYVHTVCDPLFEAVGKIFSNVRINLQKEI


Key:
[1] = target: T1, CAV1-His (wild type caveolin-1, E. coli …); experiment: negative stain electron microscopy
[2] = target: the molecule itself; experiment: negative stain electron microscopy

binding result [1]	Binder	binding result [2]
binds	P132L-mVenusHis (caveolin-1 P132L with C-terminal mVenus, E. coli expression) (natural protein, human) MSGGKYVDSEGHLYTVPIREQGNIYKPNNKAMADELSEKQVYDAHTKEIDLVNRDPKHLNDDVVKIDFEDVIAEPEGTHSFDGIWKASFTTFTVTKYWFYRLLSALFGIPMALIWGIYFAILSFLHIWAVVLCIKSFLIEIQCISRVYSIYVHTVCDPLFEAVGKIFSNVRINLQKEI	binds
–	P132L-His (caveolin-1 P132L, E. coli expression) (natural protein, human) MSGGKYVDSEGHLYTVPIREQGNIYKPNNKAMADELSEKQVYDAHTKEIDLVNRDPKHLNDDVVKIDFEDVIAEPEGTHSFDGIWKASFTTFTVTKYWFYRLLSALFGIPMALIWGIYFAILSFLHIWAVVLCIKSFLIEIQCISRVYSIYVHTVCDPLFEAVGKIFSNVRINLQKEI	binds

From article doi:10.1101/2022.05.23.493104 (bioRxiv, 2022)
